How the values were obtained:
Format in all cases: cell-based, human
[1] = test system: paraxial mesoderm; test: Paraxial mesoderm induction, marker expression; conditions: during induction of paraxial mesoderm
Description: All differentiation was conducted in serum-free CDM2 basal medium in monolayer feeder-free conditions. hPSCs were sparsely passaged ˜1:15-1:20 as fine clumps (using Accutase) onto Geltrex (Gibco)-coated cell culture wells and cultured overnight in mTeSR1+1 μM thiazovivin. The following morning, hPSCs were differentiated towards anterior PS (30 ng/mL Activin+4 μM CHIR+20 ng/mL FGF2+100 nM PIK90; for subsequent paraxial differentiation) or mid PS (30 ng/mL Activin+40 ng/mL BMP4+6 μM CHIR+20 ng/mL FGF2+[…] differentiation) for 24 hrs. D1 anterior PS→D2 paraxial mesoderm (1 μM A8301+3 μM CHIR+250 nM LDN193189+20 ng/mL FGF2) for 24 hrs. D1 mid PS→D2 lateral mesoderm (1 μM A8301+30 ng/mL BMP4+1 μM C59) for 24 hrs.
Subsequently, day 1 anterior primitive streak was briefly washed (DMEM/F12) and differentiated towards day 2 paraxial mesoderm for 24 hours (1 μM A-83-01+3 μM CHIR99021+250 nM LDN-193189+20 ng/mL FGF2). Separately, day 1 mid primitive streak was differentiated towards day 2 lateral mesoderm for 24 hours (1 μM A-83-01+30 ng/mL BMP4+1 μM C59; with 2 μM SB-505124 sometimes used instead of A-83-01).

[2] = test system: day 6 sclerotome; test: Sclerotome differentiation towards cartilage
Description: Day 6 sclerotome was briefly washed (DMEM/F12) and treated with BMP4 (20 ng/mL) for 72-144 hours, leading to day 9 or day 12 cartilage-like progeny. Media was changed every 24 hours.
hPSC-derived cartilage progeny were stained with safranin-O to assess their production of acidic proteoglycans, which is a key trademark of cartilage phenotypic function. Safranin-O staining was conducted in accord with standard procedures. Namely, hPSC-derived cartilage progeny at day 12 of differentiation (day 6 sclerotome treated with chondrogenic BMP4 for 6 further days) were fixed (with 4% formaldehyde, for 10 minutes at room temperature), washed twice in PBS, briefly treated with 1M acetic acid for 15 seconds, stained with 1% safranin-O solution for 10 minutes, washed with PBS, and wide-field visualization was performed with a dissecting microscope (Leica M205 FA).
FIG. 11: A) To determine the length of time required for sclerotome differentiation, a qPCR timecourse was performed, encompassing undifferentiated hESCs (D0), day 2 hESC-derived paraxial mesoderm (D2 PXM), day 3 hESC-derived early somite progenitors, and hESC-derived day 3 early somite progenitors that were exposed to sclerotome inductive conditions (5 nM 21K+1 μM C59) for 24 or 48 hours. B) Description of EF1α-BCL2-T2A-GFP lentiviral construct (otherwise known as “C306”; top) and FACS plot of a stably-transduced polyclonal H9 hESC line with near-uniform expression of the BCL2-T2A-GFP transgene (green contour) by comparison to uncolored wild-type hESCs (bottom) (see above methods for details of derivation of the H9 BCL2-T2A-GFP hESC line). C) Higher-magnification picture of BCL2-T2A-GFP hESC-derived sclerotome ectopic bone grafts (originally described above in FIG. 4, panel E), showing that despite the near-ubiquitous expression of GFP throughout the ectopic bone graft (indicating its human provenance), the blood vessels are clearly GFP-negative and therefore presumably derived from the mouse host; scale bar=1 mm. […]

[3] = test system: lateral mesoderm; test: Forelimb versus hindlimb progenitor specification from lateral mesoderm; conditions: day 2-3, in the context of BMP and WNT activation
Description: Undifferentiated hPSCs (wild-type H7 as well as TBX5-Venus V19-2 H9 hESCs) were maintained in mTeSR1 media on Geltrex-coated plates. As described, they were differentiated into mid primitive streak for 24 hours (D0-1; 30 ng/mL Activin+40 ng/mL BMP4+6 μM CHIR99021+20 ng/mL FGF2+100 nM PIK90) and subsequently differentiated into lateral mesoderm (D1-2; 1 μM A-83-01+30 ng/mL BMP4+1 μM C59), with the inclusion of 50 nM of TTNPB or 2 μM ATRA on D1-2 for trunk lateral mesoderm that was subsequently competent for forelimb differentiation.
Day 2 trunk lateral mesoderm was differentiated into day 3 forelimb progenitors (D2-3; 1 μM A-83-01+1 μM DMH1+3 μM CHIR99021). By contrast, day 2 non-trunk lateral mesoderm was differentiated into day 3 hindlimb progenitors (D2-3; 25 ng/mL Activin+1 μM DMH1+3 μM CHIR99021).

Cc1cnc(-c2cnc(NCCNc3ccc(C#N)cn3)nc2-c2ccc(Cl)cc2Cl)[nH]1 [CHIR99021, 6-[[2-[[4-(2,4-Dichlorophenyl)-5-(5-methyl-1H-imidazol-2-yl)-2-pyrimidinyl]amino]ethyl]amino]-3-pyridinecarbonitrile]
marker expression ([1]; at 4 μM): undesired decrease in marker expression
critical concentration [1]: less than 4 μM

B1: BMP4: BMP family ligand, BMP agonist (protein, UniProt P12644 293-408, looked up)
Bone morphogenetic protein 4: SPKHHSQRARKKNKNCRRHSLYVDFSDVGWNDWIVAPPGYQAFYCHGDCPFPLADHLNSTNHAIVQTLVNSVNSSIPKACCVPTELSAISMLYLDEYDKVVLKNYQEMVVEGCGCR
EPIPHYCAN and AGGRECAN expression (timecourse qPCR) ([2]; BMP4 20 ng/mL): only upregulated after prolonged BMP treatment
SOX9 expression (timecourse qPCR) ([2]; BMP4 20 ng/mL): rapidly downregulated
cartilage fate (COL2A1, AGGRECAN, EPIPHYCAN, COMP) ([2]; BMP4 for 3 further days, day 9): differentiated towards a cartilage fate

B2: Activin: TGFβ agonist (protein, UniProt P08476 311-426, looked up)
Inhibin beta A chain: GLECDGKVNICCKKQFFVSFKDIGWNDWIIAPSGYHANYCEGECPSHIAGTSGSSLSFHSTVINHYRMRGHSPFANLKSCCVPTKLRPMSMLYYDDGQNIIKKDIQNMIVEECGCS
modifications: Inhibin beta A chain
notes: TGFβ agonist
hindlimb transcription factors TBX4 and PITX1 expression [3]: strongly induced the hindlimb transcription factors TBX4 and PITX1

From patent US10787640B2, “Producing mesodermal cell types and methods of using the same” (The Board of Trustees of the Leland Stanford Junior …, priority 2015, dated 2020)
